Measurements published in patent publication US20230192896A1 (BIOVERATIV THERAPEUTICS, published 2023).
Residue numbers refer to the chain shown, from its start.

B1: BIIB-12-1327 (antibody, V domains shown)
VH: QVQLVESGGGVVQPGRSLRLSCAASGFTFSSYGMHWVRQAPGKGLEWVAVISYDGSNKYYADSVKGRFTISRDNSKNTLYLQMNSLRAEDTAVYYCAKLGLARGGGYGMDVWGQGTTVTVSS
VL: EIVMTQSPATQYVSPGERATLSCRASQSVSSNLAWYQQKPGQAPRLLIYGASTRATGIPARFSGSGSGTEFTLTISSLQSEDFAVYYCQQYHNFPPTFGGGTKVEIK
notes: IgG
B2: BIIB-12-1328 (antibody, V domains shown)
VH: QLQLQESGPGLVKPSETLSLTCTVSGGSISSSSYYWGWIRQPPGKGLEWIGSIYYSGSTYYNPSLKSRVTISVDTSKNQFSLKLSSVTAADTAVYYCARDPAYYSGHDYYYYGMDVWGQGTTVTVSS
VL: B1 VL with Q11L, Y12S, Y91P, H92N, N93S, F94Y, P96L
notes: IgG
B3: BIIB-12-1329 (antibody, V domains shown)
VH: QVQLVESGGGVVQPGRSLRLSCAASGFTFSSYGMHWVRQAPGKGLEWVAVISYDGSNKYYADSVKGRFTISRDNSKNTLYLQMNSLRAEDTAVYYCARGGAGSRYFQHWGQGTLVTVSS
VL: B1 VL with Q11K, Y12S, G50S, Y91V, H92F, F94W, E105K
notes: IgG
B4: BIIB-12-1330 (antibody, V domains shown)
VH: QVQLVESGGGVVQPGRSLRLSCAASGFTFSSYGMHWVRQAPGKGLEWVAVISYDGSNKYYADSVKGRFTISRDNSKNTLYLQMNSLRAEDTAVYYCAKGGSARWINIWGQGTTVTVSS
VL: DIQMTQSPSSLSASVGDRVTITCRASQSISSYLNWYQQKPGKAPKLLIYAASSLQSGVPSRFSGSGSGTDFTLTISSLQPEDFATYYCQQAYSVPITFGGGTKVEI
notes: IgG
B5: BIIB-12-1332 (antibody, V domains shown)
VH: QVQLVQSGAEVKKPGASVKVSCKASGYTFTSYYMSWVRQAPGQGLEWMGIINPSGGSTSYAQKFQGRVTMTRDTSTSTVYMELSSLRSEDTAVYYCARLGRKSRVFDIWGQGTMVTVSS
VL: DIQMTQSPSSVSASVGDRVTITCRASQGISSWLAWYQQKPGKAPKLLIYAASSLQSGVPSRFSGSGSGTDFTLTISSLQPEDFATYYCQQVNSFPLTFGGGTKVEFK
notes: IgG
B6: BIIB-12-1333 (antibody, V domains shown)
VH: QVQLVQSGAEVKKPGASVKVSCKASGYTFTSYYMVWVRQAPGQGLEWMGIINPSGGSTSYAQKFQGRVTMTRDTSTSTVYMELSSLRSEDTAVYYCARVSRRDYPLAFDIWGQGTMVTVSS
VL: EIVMTQSPATLSVSPGERATLSCRASQSVSSNLAWYQQKPGQAPRLLIYGASTRATGIPARFSGSGSGTEFTLTISSLQSEDFAVYYCQQVNTWPTFGGGTKVEIK
notes: IgG
B7: BIIB-9-581 (antibody, V domains shown)
VH: QVQLVQSGAEVKKPGASVKVSCKASGYTFTSYYMHWVRQAPGQGLEWMGIINPSGGSTSYAQKFQGRVTMTRDTSTSTVYMELSSLRSEDTAVYYCARDPLYYREGYVFDYWGQGTLVTVSS
VL: B5 VL with V11L, G28S, W32Y, A34N, V91S, N92D, S93L, L96F, F106I
notes: IgG
B8: BIIB-9-606 (antibody, V domains shown)
VH: QVQLVQSGAEVKKPGASVKVSCKASGYTFTSYYMHWVRQAPGQGLEWMGIINPSGGSTSYAQKFQGRVTMTRDTSTSTVYMELSSLRSEDTAVYYCARTKWSSSPYGMDVWGQGTTVTVSS
VL: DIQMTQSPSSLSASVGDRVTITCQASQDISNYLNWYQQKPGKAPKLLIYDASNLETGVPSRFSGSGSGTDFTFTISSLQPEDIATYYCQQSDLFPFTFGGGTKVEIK
notes: IgG
B9: BIIB-9-569 (antibody, V domains shown)
VH: B8 VH with T99D, K100G, W101S, S102G, S103Y, G107S, M108F, V110P, T116L
VL: DIQMTQSPSSLSASVGDRVTITCQASQDISNYLNWYQQKPGKAPKLLIYDASNLATGVPSRFSGSGSGTDFTFTISSLQPEDIATYYCQQADDFPFTFGGGTKVEIK
notes: IgG
B10: BIIB-9-582 (antibody, V domains shown)
VH: B8 VH with H35V, T99A, K100P, W101T, S102Y, S103F, S104Y, P105S
VL: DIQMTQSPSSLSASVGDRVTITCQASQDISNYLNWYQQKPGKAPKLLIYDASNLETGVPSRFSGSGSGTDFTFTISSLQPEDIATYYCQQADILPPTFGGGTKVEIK
notes: IgG
B11: BIIB-9-585 (antibody, V domains shown)
VH: QLQLQESGPGLVKPSETLSLTCTVSGGSISSSDYYWGWIRQPPGKGLEWIGSIYYSGSTYYNPSLKSRVTISVDTSKNQFSLKLSSVTAADTAVYYCAREVGTYYYGLDFWFDPWGQGTLVTVSS
VL: B5 VL with V91A, F94Y, L96I, F106I
notes: IgG
B12: BIIB-9-587 (antibody, V domains shown)
VH: QVQLVQSGAEVKKPGASVKVSCKASGYTFTSYYMHWVRQAPGQGLEWMGIINPSGGSTSYAQKFQGRVTMTRDTSTSTVYMELSSLRSEDTAVYYCARGPPGYEYYMDVWGKGTTVTVSS
VL: B5 VL with V91A, N92D, L96F, F106I
notes: IgG
B13: BIIB-9-590 (antibody, V domains shown)
VH: B12 VH with G99D, P100Q, P101E, G102W, Y103A, E104Y, Y106G, K112Q
VL: EIVLTQSPATLSLSPGERATLSCRASQSVSSYLAWYQQKPGQAPRLLIYDASNRATGIPARFSGSGSGTDFTLTISSLEPEDFAVYYCQQVDNFPLTFGGGTKVEIK
notes: IgG
B14: BIIB-9-592 (antibody, V domains shown)
VH: QLQLQESGPGLVKPSETLSLTCTVSGGSISSNSYYWGWIRQPPGKGLEWIGSIYYSGSTYYNPSLKSRVTISVDTSKNQFSLKLSSVTAADTAVYYCARDSNYDSSGYALYYYGMDVWGQGTTVTVSS
VL: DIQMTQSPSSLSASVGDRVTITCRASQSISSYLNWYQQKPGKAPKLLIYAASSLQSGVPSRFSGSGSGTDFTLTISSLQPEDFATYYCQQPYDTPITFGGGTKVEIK
notes: IgG
B15: BIIB-9-608 (antibody, V domains shown)
VH: QLQLQESGPGLVKPSETLSLTCTVSGGSISSSSYYWGWIRQPPGKGLEWIGSIYYSGSTYYNPSLKSRVTISVDTSKNQFSLKLSSVTAADTAVYYCARDRLETSEAGMDVWGQGTTVTVSS
VL: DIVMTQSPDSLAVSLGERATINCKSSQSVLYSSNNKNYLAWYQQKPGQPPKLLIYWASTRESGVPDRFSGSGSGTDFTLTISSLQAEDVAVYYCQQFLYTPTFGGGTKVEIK
notes: IgG
B16: BIIB-9-616 (antibody, V domains shown)
VH: QVQLVQSGAEVKKPGASVKVSCKASGYTFTSYYMHWVRQAPGQGLEWMGIINPSGGSTSYAQKFQGRVTMTRDTSTSTVYMELSSLRSEDTAVYYCARGGSKYFFDLWGRGTLVTVSS
VL: B1 VL with Q11L, Y12S, N32S, Y91A, H92D, P96F
notes: IgG
B17: BIIB-9-621 (antibody, V domains shown)
VH: QLQLQESGPGLVKPSETLSLTCTVSGGSISSSSYYWGWIRQPPGKGLEWIGSIYYSGSTYYNPSLKSRVTISVDTSKNQFSLKLSSVTAADTAVYYCARDGSISGSRFDYWGQGTLVTVSS
VL: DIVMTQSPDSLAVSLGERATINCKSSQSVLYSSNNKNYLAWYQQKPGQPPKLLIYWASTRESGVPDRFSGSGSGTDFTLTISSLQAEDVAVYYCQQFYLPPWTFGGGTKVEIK
notes: IgG
B18: BIIB-9-566 (antibody, V domains shown)
VH: QVQLVQSGAEVKKPGASVKVSCKASGYTFTSYYMVWVRQAPGQGLEWMGIINPSGGSTSYAQKFQGRVTMTRDTSTSTVYMELSSLRSEDTAVYYCARVPTYRYSYLAFDIWGQGTMVTVSS
VL: B1 VL with Q11L, Y12S, N32S, Y91H, H92D, F94W
notes: IgG
B19: BIIB-9-622 (antibody, V domains shown)
VH: B18 VH with V35H, V99D, P100G, T101A, Y102T, R103T, Y104V, A108S
VL: B1 VL with Q11L, Y12S, N32S, Y91H, H92S, N93T, F94W
notes: IgG
B20: BIIB-9-627 (antibody, V domains shown)
VH: QVQLVQSGAEVKKPGASVKVSCKASGYTFTSYYMHWVRQAPGQGLEWMGIINPSGGSTSYAQKFQGRVTMTRDTSTSTVYMELSSLRSEDTAVYYCARADYDYWSGYGGLGMDVWGQGTTVTVSS
VL: not shown
notes: IgG
B21: BIIB-9-414 (antibody, V domains shown)
VH: B8 VH with T99D, K100P, W101Y, S103Y, S104G, P105M, G107Y, M108F, V110Y, T116L
VL: B5 VL with V91G, N92D, S93V, L96F, F106I
notes: IgG
B22: BIIB-9-452 (antibody, V domains shown)
VH: B5 VH with S35H, L99D, K102L, R104Y, V105T, F106W, I108R, M114L
VL: B1 VL with Q11L, Y12S, Y91A, H92N, P96F
notes: IgG
B23: BIIB-9-605 (antibody, V domains shown)
VH: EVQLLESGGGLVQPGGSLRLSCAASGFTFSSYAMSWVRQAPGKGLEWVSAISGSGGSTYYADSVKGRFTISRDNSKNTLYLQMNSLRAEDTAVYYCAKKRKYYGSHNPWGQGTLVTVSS
VL: B5 VL with V91A, N92D, S93V, L96F, F106I
notes: IgG
B24: BIIB-9-475 (antibody, V domains shown)
VH: QVQLQESGPGLVKPSETLSLTCTVSGGSISSYYWSWIRQPPGKGLEWIGSIYYSGSTNYNPSLKSRVTISVDTSKNQFSLKLSSVTAADTAVYYCARDVGGYDYGVGAFDIWGQGTMVTVSS
VL: B9 VL with S30T, A55E, A91S, D92S, D93N, F96L
notes: IgG
B25: BIIB-9-477 (antibody, V domains shown)
VH: EVQLLESGGGLVQPGGSLRLSCAASGFTFSNYAMSWVRQAPGKGLEWVSAISGSGGSTYYADSVKGRFTISRDNSKNTLYLQMNSLRAEDTAVYYCARGGVYSSSWMRFWGQGTLVTVSS
VL: B1 VL with Q11L, Y12S, N32S, Y49F, Y91D, H92V, F94W, P96I
notes: IgG
B26: BIIB-9-479 (antibody, V domains shown)
VH: QVQLQESGPGLVKPSETLSLTCTVSGGSISSYYWSWIRQPPGKGLEWIGSIYYSGSTNYNPSLKSRVTISVDTSKNQFSLKLSSVTAADTAVYYCAREHYGDYPLFDIWGQGTMVTVSS
VL: DIQMTQSPSTLSASVGDRVTITCRASQSISSWLAWYQQKPGKAPKLLIYKASSLESGVPSRFSGSGSGTEFTLTISSLQPDDFATYYCQQYRILSPTFGGGTKVEIK
notes: IgG

Target: T1, non-activatable Factor X (FXn) (Homo sapiens (Human), UniProt P00742 41-488, single biotin on the C-terminal BioTag)
T1 construct: also called BIIB-FX-015
Assay: BLI; class meaning: paragraph 285

Binding result, binds:
B1
B2
B3
B4
B5
B6

Target: T2, FIXa-SM (FIXa+EGR-CMK) (human, UniProt P00740 47-191; P00740 227-461, EGR-CMK (L-Glu-Gly-Arg chloromethyl ketone) covalently bound to the active site)
T2 construct: BLI antigen bought from Haematologic Technologies (HCIXA-EGR); also called FIXa with substrate mimic
Assay: BLI; class meaning: paragraph 914

Binding result, binds:
B7
B8
B9
B10
B11
B12
B13
B14
B15
B16
B17
B18
B19
B20
B21
B22
B23
B24
B25
B26
